Consider 2 molecules from article PMC8688474 (Nature Communications, 2021).

The assay concerns the target T1, WT SARS-CoV-2 RBD protein (SARS-CoV-2, Wuhan-Hu-1 (WT), UniProt P0DTC2).
T1 construct: also called WT RBD
Briefly: ELISA. The settings on record: both partners purified. Background: An ELISA detects its analyte on a solid surface through an enzyme-linked reagent.

B1: neutralizing MAb 2H2 (antibody, V domains shown)
VH: QVQLKQSGPSLVQPSQSLSITCTVSGFSLTSYGVHWVRQSPGKGLEWLGVMWRGGNTDYNAAFMSRLSITKDNSKSQVFFKMNSLQTDDTAIYYCAKNGGAHAMDFWGQGTSVTVSS
VL: NIVLTQSPASLAVSLGQRATISCRASESVDSYGNSFLHWYQQKPGQPPKLLIYLASNLESGVPARFSGSGSRTDFTLTIDPVEADDAATYYCQQNNEDPFTFGSGTKLEIK
In the case of B1, the binding result was “binds”.

B2: neutralizing MAb 3C1 (antibody, V domains shown)
VH: EVQLQESGPSLVKPSQTLSLTCSVTGDSITNGYWNWIRKFPGNKLEYMGYISYSGSTYYSPSLKSRISITRDTSKNQHYLQLNSVTSEDTATYYCASDYHGSKYYFDYWGQGTTLTVSS
VL: DIVMTQSHKFMSTSVGHRVSITCKASQDVGNDVAWYQQKPGQSPKLLIYWASTRHTGVPDRFTGSGSGTDFTLTISNVQSEDLADYFCQQYNRYPYTFGGGTKLEIK
As to B2, the binding result is given as “binds”.
